Results as given in patent US10117953B2, “Antibody drug conjugates” (Novartis AG, priority 2013, dated 2018).

Tests used:
[1] = target: T1, human cKIT ECD (Homo sapiens, UniProt P10721); assay: SPR (Biacore 2000) affinity measurement; assay type: binding; details: Table 5
T1 construct: Human cKIT tr. variant 2 , residues 26-520-TAG; His6 (C); made in house; host or cells: HEK293 derived cell lines (293FS), transient transfection
Method: Affinity of the antibodies to cKIT species orthologues and also to cKIT was determined using SPR technology using a Biacore® 2000 instrument (GE Healthcare, Pittsburgh, Pa.) and with CM5 sensor chips.
Briefly, HBS-P (0.01 M HEPES, pH 7.4, 0.15 M NaCl, 0.005% Surfactant P20) supplemented with 2% Odyssey® blocking buffer (Li-Cor Biosciences, Lincoln, Nebr.) was used as the running buffer for all the experiments. The immobilization level and analyte interactions were measured by response unit (RU). Pilot experiments were performed to test and confirm the feasibility of the immobilization of the anti-human Fc antibody (Catalog number BR100839, GE Healthcare, Pittsburgh, Pa.) and the capture of the test antibodies.
For kinetic measurements, the experiments were performed in which the antibodies were captured to the sensor chip surface via the immobilized anti-human Fc antibody and the ability of the cKIT proteins to bind in free solution was determined. Briefly, 25 μg/ml of anti-human Fc antibody at pH 5 was immobilized on a CM5 sensor chip through amine coupling at flow rate of 5 μl/minute on all two flow cells to reach 10,500 RUs. 0.1-1 μg/ml of test antibodies were then injected at 10 μl/min for 1 minute. Captured levels of the antibodies were generally kept below 200 RUs. […]

[2] = tested on: surface cKIT on GIST-T1 cells; assay: Ab-mediated internalization of surface cKIT by flow cytometry; assay type: cell-based, human; details: 10 ug/ml, 30 min to 24 hr at 37° C.
Chain of surface cKIT on GIST-T1 cells (P10721 26-509 limits assumed): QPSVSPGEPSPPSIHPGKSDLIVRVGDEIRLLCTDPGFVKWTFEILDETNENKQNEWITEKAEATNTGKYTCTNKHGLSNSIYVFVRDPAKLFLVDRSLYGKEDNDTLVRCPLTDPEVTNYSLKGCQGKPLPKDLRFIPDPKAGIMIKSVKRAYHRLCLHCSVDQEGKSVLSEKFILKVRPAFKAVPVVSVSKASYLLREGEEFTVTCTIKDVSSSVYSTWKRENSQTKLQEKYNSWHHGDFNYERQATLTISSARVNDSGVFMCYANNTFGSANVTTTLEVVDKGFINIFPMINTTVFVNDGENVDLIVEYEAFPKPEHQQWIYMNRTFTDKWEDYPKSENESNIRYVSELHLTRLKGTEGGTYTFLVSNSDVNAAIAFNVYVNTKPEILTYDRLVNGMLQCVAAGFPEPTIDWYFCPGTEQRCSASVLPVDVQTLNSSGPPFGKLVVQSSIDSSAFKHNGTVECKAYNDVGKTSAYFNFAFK
Method: The kinetics of cKIT antibody mediated internalization was evaluated by treating with antibody in a cell monolayer using a temperature shift method and flow cytometry readout. GIST-T1 (kindly provided by Dr. Takahiro Taguchi, Kochi U., Japan) cells were seeded at 2.5×10E5 cells/well in five 12-well tissue culture treated plates (BD Falcon 353043). The cells were incubated in a tissue culture incubator at 37° C. with 5% CO2 overnight. The following day medium was removed and replaced with 450 ul fresh medium. […] All cells were incubated for 1 hr on ice, followed by two washes with 1 mL 1× Phosphate buffered saline (PBS) and resuspended in 500 μl cell culture medium. Plates #2-5 were transferred to 37° C. and harvested at time points; 30 min, 2 hr, 4 hr and 24 hr at 37° C. with 5% CO2. 100 μl of cell dissociation buffer (Gibco Cat#13150-016, Life Technologies, Carlsbad, Calif.) was added to plate#1 (4° C. binding control) and incubated at 37° C. until cells were detached. […] The following day, all samples were analyzed using the BD FACSCanto II® equipment using a HTS system (BD Biosciences, San Jose, Calif.). Samples were analyzed with FlowJo software to obtain the Geometric Mean values of fluorescence for the Phyeoerythrin channel, FIG. 13A is a plot of % of initial cell surface binding vs […] at 37° C.×100.

[3] = target: T2, cKit receptor on normal human CD34+ bone marrow cells (Homo sapiens, UniProt P10721); assay: cKit receptor levels on bone marrow cells by flow cytometry; assay type: cell-based; details: 10 μg/ml
T2 construct: host or cells: normal human CD34+ bone marrow cells (primary)
T2 sequence (P10721 26-976): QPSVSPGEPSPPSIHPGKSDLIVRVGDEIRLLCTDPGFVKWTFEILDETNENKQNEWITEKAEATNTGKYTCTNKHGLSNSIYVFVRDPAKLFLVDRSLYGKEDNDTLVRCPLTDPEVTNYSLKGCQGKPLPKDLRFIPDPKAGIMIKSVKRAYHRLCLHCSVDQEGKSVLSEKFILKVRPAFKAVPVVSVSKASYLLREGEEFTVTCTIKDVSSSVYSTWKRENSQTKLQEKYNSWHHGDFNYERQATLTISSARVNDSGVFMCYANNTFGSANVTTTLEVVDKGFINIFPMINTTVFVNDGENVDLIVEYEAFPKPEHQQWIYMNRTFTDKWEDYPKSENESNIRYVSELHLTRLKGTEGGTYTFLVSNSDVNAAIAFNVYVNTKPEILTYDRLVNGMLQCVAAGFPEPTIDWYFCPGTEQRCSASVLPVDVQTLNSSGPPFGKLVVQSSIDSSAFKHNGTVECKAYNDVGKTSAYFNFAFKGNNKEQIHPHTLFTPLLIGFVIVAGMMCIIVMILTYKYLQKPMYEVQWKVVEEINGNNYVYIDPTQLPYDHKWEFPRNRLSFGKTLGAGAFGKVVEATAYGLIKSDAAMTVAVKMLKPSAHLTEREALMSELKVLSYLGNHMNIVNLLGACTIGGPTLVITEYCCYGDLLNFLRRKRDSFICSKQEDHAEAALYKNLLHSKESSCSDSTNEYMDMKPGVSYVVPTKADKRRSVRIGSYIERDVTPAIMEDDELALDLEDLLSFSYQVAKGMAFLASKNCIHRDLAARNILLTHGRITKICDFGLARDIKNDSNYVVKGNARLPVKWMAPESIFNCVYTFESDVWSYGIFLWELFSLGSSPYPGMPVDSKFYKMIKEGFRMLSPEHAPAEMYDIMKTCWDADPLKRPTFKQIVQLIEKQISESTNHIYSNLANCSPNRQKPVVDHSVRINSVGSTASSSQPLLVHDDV
Method: In another internalization experiment, the impact of NEG085 on cKit receptor levels was evaluated on human bone marrow cells. Normal human CD34+ bone marrow cells (All Cells, Cat #ABM022F, Emeryville, Calif.) were thawed and washed with 10 mL of StemPro0-34 SFM medium (Gibco, Life Technologies, Carlsbad, Calif.). Cells were resuspended in 1.25 mL of StemPro-34 SFM medium at 4×10^5 cells/mL and split equally into two tubes. […] 100 μL of cell suspension was collected at each timepoint (0, 15, 30, 60, 120, and 240 min) from each condition, and placed into an ice cold collection tube to cease internalization. Cells were washed with 3 mL of ice-cold FBS stain buffer and resuspended in 100 μL of FBS stain buffer. […] of 104D2-BV421 (mouse anti-human IgG1 k, Biolegend) was added to each tube and incubated on ice for 1 hour. Following another wash with FBS stain buffer, total cKit receptors were measured by flow cytometry by assessing the mean fluorescence intensity of BV421 on a FACS Canto II® (BD Biosciences, San Jose, Calif.).

T1 sequence (P10721 26-520 isoform P10721-2): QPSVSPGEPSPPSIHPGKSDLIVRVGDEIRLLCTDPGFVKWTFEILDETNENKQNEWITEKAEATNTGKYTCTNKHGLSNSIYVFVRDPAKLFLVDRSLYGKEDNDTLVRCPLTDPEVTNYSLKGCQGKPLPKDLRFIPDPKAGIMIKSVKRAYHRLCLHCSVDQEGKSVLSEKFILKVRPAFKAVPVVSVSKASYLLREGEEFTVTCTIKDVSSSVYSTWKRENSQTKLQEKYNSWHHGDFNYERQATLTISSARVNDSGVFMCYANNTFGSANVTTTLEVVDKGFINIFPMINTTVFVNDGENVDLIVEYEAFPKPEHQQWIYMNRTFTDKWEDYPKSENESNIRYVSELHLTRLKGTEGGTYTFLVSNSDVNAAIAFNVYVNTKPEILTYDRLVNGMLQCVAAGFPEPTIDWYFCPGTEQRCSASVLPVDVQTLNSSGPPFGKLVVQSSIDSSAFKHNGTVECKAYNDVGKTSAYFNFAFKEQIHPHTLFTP

B1: NEG085: anti-cKIT antibody of Table 1; VH SEQ ID NO 82, VL SEQ ID NO 91; derived from 9P3 (antibody, V domains shown)
VH: EVQLVESGGGLVQPGGSLRLSCAASGFAFSGYYMAWVRQAPGKGLEWVANINYPGSSTYYLDSVKGRFTISRDNAKNSLYLQMNSLRAEDTAVYYCARGDYYGTTYWYFDVWGQGTTVTVSS
VL: DIQMTQSPSSLSASVGDRVTITCRASQSISSYLNWYQQKPGKAPKLLIYYTSRLQSGVPSRFSGSGSGTDFTLTISSLQPEDFATYYCQQGRRLWSFGGGTKVEIK
In the case of B1, the “reaction with human cKIT” value [1] is reported as “nanomolar level”, the “internalization after binding cKIT on the cell surface” value [2] is reported as “rapidly internalized into the cell” and the “time of the bulk of the internalization” value [3] is reported as 15 min. The cKIT internalization ([3]; 0-240 min) was “rapidly internalized”.
